Results published in patent publication US20040058368A1 (PENN STATE RESEARCH FOUNDATION, published 2004).

T1: Gal80-TBP (Saccharomyces cerevisiae (yeast), UniProt P04387 1-435; P13393 1-240, limits assumed)
T1 construct: The junction and any tags are not described
T1 sequence (looked up): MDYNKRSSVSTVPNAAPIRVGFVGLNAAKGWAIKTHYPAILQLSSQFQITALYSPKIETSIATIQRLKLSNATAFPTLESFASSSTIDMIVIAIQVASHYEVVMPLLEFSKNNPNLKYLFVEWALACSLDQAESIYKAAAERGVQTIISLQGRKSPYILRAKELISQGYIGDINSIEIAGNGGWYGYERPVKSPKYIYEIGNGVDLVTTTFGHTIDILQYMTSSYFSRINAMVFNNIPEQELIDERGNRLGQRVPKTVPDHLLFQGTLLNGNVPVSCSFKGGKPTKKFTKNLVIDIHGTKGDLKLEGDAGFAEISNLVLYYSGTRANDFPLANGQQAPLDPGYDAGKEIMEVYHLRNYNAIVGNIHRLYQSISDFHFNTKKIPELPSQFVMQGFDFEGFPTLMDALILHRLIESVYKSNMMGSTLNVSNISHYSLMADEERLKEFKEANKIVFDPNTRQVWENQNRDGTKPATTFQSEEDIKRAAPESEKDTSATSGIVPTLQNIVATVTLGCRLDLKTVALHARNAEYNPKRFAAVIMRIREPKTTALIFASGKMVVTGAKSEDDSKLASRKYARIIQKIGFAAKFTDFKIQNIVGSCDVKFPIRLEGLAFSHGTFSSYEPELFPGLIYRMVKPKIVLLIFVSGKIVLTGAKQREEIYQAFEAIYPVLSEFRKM

T2: wild type Gal3p (Saccharomyces cerevisiae (yeast), UniProt P13045 1-520)
T2 sequence (looked up): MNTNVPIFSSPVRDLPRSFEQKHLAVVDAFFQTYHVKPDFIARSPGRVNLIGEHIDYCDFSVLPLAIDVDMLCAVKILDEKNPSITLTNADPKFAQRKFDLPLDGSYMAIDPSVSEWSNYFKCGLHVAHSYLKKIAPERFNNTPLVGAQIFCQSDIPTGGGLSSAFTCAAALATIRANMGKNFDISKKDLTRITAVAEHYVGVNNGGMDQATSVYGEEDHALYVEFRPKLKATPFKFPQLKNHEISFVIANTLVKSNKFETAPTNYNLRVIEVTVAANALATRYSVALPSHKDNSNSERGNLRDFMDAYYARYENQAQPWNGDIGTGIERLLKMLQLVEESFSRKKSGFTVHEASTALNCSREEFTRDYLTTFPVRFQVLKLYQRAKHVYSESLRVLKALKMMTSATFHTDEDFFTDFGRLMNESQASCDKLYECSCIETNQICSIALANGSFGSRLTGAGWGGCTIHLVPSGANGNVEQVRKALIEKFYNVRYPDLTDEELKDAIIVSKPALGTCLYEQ

B1: Membrane targeted transcriptional activation domain of Gal4p (Myr-Gal4AD) (other, Saccharomyces cerevisiae (yeast))
chain: MGCTVSTQTIGDESDPPLTPSALFGGANFNQSGNIADSSLSFTFTNSSNGPNLITTQTNSQALSQPIASSNVHDNFMNNEITASKIDDGNNSKPLSPGWTDQTAYNAFGITTGMFNTTTMDDVYNYLFDDEDTPPNPKKE
modifications: N-myristoylation signal at the N terminus
notes: range 758-881; also called membrane-localized Gal4AD
B2: Gal80p (other, Saccharomyces cerevisiae (yeast), UniProt P04387 1-435, looked up)
chain: MDYNKRSSVSTVPNAAPIRVGFVGLNAAKGWAIKTHYPAILQLSSQFQITALYSPKIETSIATIQRLKLSNATAFPTLESFASSSTIDMIVIAIQVASHYEVVMPLLEFSKNNPNLKYLFVEWALACSLDQAESIYKAAAERGVQTIISLQGRKSPYILRAKELISQGYIGDINSIEIAGNGGWYGYERPVKSPKYIYEIGNGVDLVTTTFGHTIDILQYMTSSYFSRINAMVFNNIPEQELIDERGNRLGQRVPKTVPDHLLFQGTLLNGNVPVSCSFKGGKPTKKFTKNLVIDIHGTKGDLKLEGDAGFAEISNLVLYYSGTRANDFPLANGQQAPLDPGYDAGKEIMEVYHLRNYNAIVGNIHRLYQSISDFHFNTKKIPELPSQFVMQGFDFEGFPTLMDALILHRLIESVYKSNMMGSTLNVSNISHYSL
notes: Endogenous yeast protein, inside the cells; also called Gal80 protein

Tests used:
[1] = target: B2; experiment: UASGAL-HIS3 reporter growth assay in yeast without galactose
Text: FIG. 6. (Yeast cells) Membrane targeted transcriptional activation domain of Gal4p (Gal4AD; amino acid 758-881) activates HIS3 reporter gene expression. A yeast strain harboring a UASGAL-HIS3 reporter was transformed with Myr-Gal4AD. […] Transformed cells were spotted on synthetic medium plates lacking histidine, tryptophan and uracil and containing 3% glycerol/2% lactic acid as carbon source.

[2] = target: T1, Gal80-TBP; experiment: 80-Trap HIS3 reporter growth assay in yeast
Text: FIG. 5. (Yeast cells) A membrane-targeted transcription factor activates GAL gene expression through interaction with Gal80-TBP. Galactose-independent HIS3 reporter (expression as a result of Gal80-TBP and Myr-TAF145 interaction; lane 1). Lane 2 illustrates the positive control: interaction between two proteins known to interact: Fpr1 (in fusion with Gal80) and Hom3 (fused to the Myr sequence and CFP). Lane 3 is the negative control with Gal80-TBP tested against just the Myr sequence. The nutrient agar plate used here contained 3% glycerol/2% lactic acid as carbon source and lacked histidine, tryptophan and uracil.

[3] = target: T2, wild type Gal3p; experiment: cell-based or functional assay
[4] = target: T3, Gal4p (Saccharomyces cerevisiae (yeast), UniProt P04386 1-881); experiment: formaldehyde cross-linking and chromatin immunoprecipitation in yeast, un-induced against galactose-induced
T3 construct: Endogenous protein of wild type Sc723 cells, cross-linked in vivo
Protocol: Fold enrichments are indicated (enrichment). […] FIG. 3C illustrates quantitation of promoter occupancy by Gal4p, Gal80p and Gal3p in un-induced and induced cells. Values are means (±standard deviation) of at least five experiments carried out with two sets of independently prepared chromatin samples.
Chromatin immunoprecipitations were performed as described by Braunstein et al., 1993, Genes Dev. 7: 592-604 and Kuras et al. 1999, Nature 399: 609-613. Briefly, wild type Sc723 cells (Blank et al., 1997, Mol. Cell. Biol. 17: 2566-2575) were grown to early exponential growth phase (as measured by absorbance at 600 nm˜0.4) in 250 mL yeast extract-peptone medium containing 2% glycerol, 3% lactic acid, and 0.05% glucose (-galactose, un-induced). For galactose-induced cultures, galactose was added to the un-induced cultures to a final concentration of 2% and the cultures were incubated for an additional 20 minutes. Formaldehyde was added to a final concentration of 1%, the cultures were incubated for 20 minutes at room temperature, and glycine was added to a final concentration of 300 mM. All the following steps were carried out at […]. Cells were washed twice with TBS (20 mM Tris-HCl, 150 mM NaCl, pH 8.0), resuspended in 1 mL lysis buffer (50 mM Tris-HCl pH 8.0, 10 mM EDTA, 1% SDS, 1 mM PMSF), and disrupted by vortexing with glass beads. […]

## B1
[1]
  binding result: binds

## MGCTVSTQTIGDESDP (N-myristoylation signal) [Myr sequence]
[2]
  binding result: no binding

## B2
[3]
  MEL1 gene expression level: 2 fold reduction
[4]
  binding result: binds
